The text below walks through data of publication doi:10.1101/286310, “Dynamics of human protein kinases linked to drug selectivity” (bioRxiv, 2018).

This data set deals with the molecule itself. Nature of the data set: crystal structure; co-crystallised: 240 uM deP Aurora A 122-403 + 1.0 mM AT9283 + 250 uM Mb; sitting drop, 18 °C; 0.1 M Bis-Tris pH 5.5, 0.2 M magnesium chloride, 19% (w/v) PEG-3350.

B1: dephosphorylated Aurora A (122-403) (domain or fragment, human, UniProt O14965 122-403, looked up)
chain: ESKKRQWALEDFEIGRPLGKGKFGNVYLAREKQSKFILALKVLFKAQLEKAGVEHQLRREVEIQSHLRHPNILRLYGYFHDATRVYLILEYAPLGTVYRELQKLSKFDEQRTATYITELANALSYCHSKRVIHRDIKPENLLLGSAGELKIADFGWSVHAPSSRRTTLCGTLDYLPPEMIEGRMHDEKVDLWSLGVLCYEFLVGKPPFEANTYQETYKRISRVEFTFPDFVTEGARDLISRLLKHNPSQRPMLREVLEHPWITANSSKPSNCQNKESASKQS
notes: Aurora A kinase (Ser/Thr kinase), residues 122-403, dephosphorylated; also called AurA; deP Aurora A^122-403; source: expressed and purified as described before (Zorba et al., 2014); dephosphorylated state confirmed by mass spectrometry
For B1, the binding result was “binds”.
